# Experimental data taken from PMC10786891, “Massively parallel profiling of RNA-targeting CRISPR-Cas13d”.
# T1: EsCas13d, nuclease-dead (Eubacterium siraeum, UniProt B0MS50, R295A;H300A;R849A;H854A)
# T1 sequence: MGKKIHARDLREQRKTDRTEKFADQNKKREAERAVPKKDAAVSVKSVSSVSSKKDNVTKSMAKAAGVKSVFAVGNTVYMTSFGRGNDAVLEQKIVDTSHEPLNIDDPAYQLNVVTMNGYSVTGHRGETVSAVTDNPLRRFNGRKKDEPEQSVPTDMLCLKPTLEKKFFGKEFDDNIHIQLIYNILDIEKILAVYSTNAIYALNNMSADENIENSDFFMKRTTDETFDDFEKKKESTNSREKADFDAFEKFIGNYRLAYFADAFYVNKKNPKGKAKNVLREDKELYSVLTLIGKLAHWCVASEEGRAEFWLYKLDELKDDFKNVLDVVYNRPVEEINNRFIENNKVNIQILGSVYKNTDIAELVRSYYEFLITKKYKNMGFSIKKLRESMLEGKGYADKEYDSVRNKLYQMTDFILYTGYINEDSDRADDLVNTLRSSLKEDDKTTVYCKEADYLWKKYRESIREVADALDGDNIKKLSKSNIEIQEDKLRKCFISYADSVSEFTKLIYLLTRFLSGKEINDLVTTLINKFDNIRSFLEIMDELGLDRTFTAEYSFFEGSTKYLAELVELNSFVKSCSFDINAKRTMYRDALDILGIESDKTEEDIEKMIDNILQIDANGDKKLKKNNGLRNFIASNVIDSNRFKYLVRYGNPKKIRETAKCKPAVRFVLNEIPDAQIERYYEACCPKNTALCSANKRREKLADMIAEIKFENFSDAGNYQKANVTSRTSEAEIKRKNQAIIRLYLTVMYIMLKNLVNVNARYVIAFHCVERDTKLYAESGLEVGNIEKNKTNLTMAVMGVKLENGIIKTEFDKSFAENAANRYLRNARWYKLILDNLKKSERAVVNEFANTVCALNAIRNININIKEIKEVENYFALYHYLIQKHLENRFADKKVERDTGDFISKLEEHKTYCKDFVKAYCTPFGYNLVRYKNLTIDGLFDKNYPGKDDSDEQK
# B1: target 1 insC 3' of 9,insU 3' of 4 (mixed)
# RNA 1: CACCCGUGCAAAAAUGCAGGGGUCUAAAACUGAGCGGAUAACCUCUCUAUGG
# RNA 2: GGGAAUGGAUCCACAUCUACGAAUUCGUACCAUAGAGAGGUUACUCCGCUUCACCGAGAUCGGAAGAGCACACGU
# B2: target 1 C4G,A18C (mixed)
# RNA 1: CACCCGUGCAAAAAUGCAGGGGUCUAAAACUGAGCGGAUAACCUCUCUAUGG
# RNA 2: GGGAAUGGAUCCACAUCUACGAAUUCGUACCAUCGAGAGGUUAUCCGGUCACCGAGAUCGGAAGAGCACACGU
# B3: target 1 insG 3' of 20,insA 3' of 11 (mixed)
# RNA 1: CACCCGUGCAAAAAUGCAGGGGUCUAAAACUGAGCGGAUAACCUCUCUAUGG
# RNA 2: GGGAAUGGAUCCACAUCUACGAAUUCGUACCAGUAGAGAGGUAUAUCCGCUCACCGAGAUCGGAAGAGCACACGU
# B4: target 1 insU 3' of 17,insC 3' of 10 (mixed)
# RNA 1: CACCCGUGCAAAAAUGCAGGGGUCUAAAACUGAGCGGAUAACCUCUCUAUGG
# RNA 2: GGGAAUGGAUCCACAUCUACGAAUUCGUACCAUAGUAGAGGUUCAUCCGCUCACCGAGAUCGGAAGAGCACACGU
# B5: target 1 U3C,G5C (mixed)
# RNA 1: CACCCGUGCAAAAAUGCAGGGGUCUAAAACUGAGCGGAUAACCUCUCUAUGG
# RNA 2: GGGAAUGGAUCCACAUCUACGAAUUCGUACCAUAGAGAGGUUAUCCCCCCACCGAGAUCGGAAGAGCACACGU
# B6: target 1 insA 3' of 17,insG 3' of 1 (mixed)
# RNA 1: CACCCGUGCAAAAAUGCAGGGGUCUAAAACUGAGCGGAUAACCUCUCUAUGG
# RNA 2: GGGAAUGGAUCCACAUCUACGAAUUCGUACCAUAGAAGAGGUUAUCCGCUCAGCCGAGAUCGGAAGAGCACACGU
# B7: target 1 C6U,G15C (mixed)
# RNA 1: CACCCGUGCAAAAAUGCAGGGGUCUAAAACUGAGCGGAUAACCUCUCUAUGG
# RNA 2: GGGAAUGGAUCCACAUCUACGAAUUCGUACCAUAGACAGGUUAUCUGCUCACCGAGAUCGGAAGAGCACACGU
# B8: target 1 C7A,A14G (mixed)
# RNA 1: CACCCGUGCAAAAAUGCAGGGGUCUAAAACUGAGCGGAUAACCUCUCUAUGG
# RNA 2: GGGAAUGGAUCCACAUCUACGAAUUCGUACCAUAGAGGGGUUAUACGCUCACCGAGAUCGGAAGAGCACACGU
# B9: target 1 insU 3' of 15,insU 3' of 6 (mixed)
# RNA 1: CACCCGUGCAAAAAUGCAGGGGUCUAAAACUGAGCGGAUAACCUCUCUAUGG
# RNA 2: GGGAAUGGAUCCACAUCUACGAAUUCGUACCAUAGAGUAGGUUAUCCUGCUCACCGAGAUCGGAAGAGCACACGU
# B10: target 1 A9G,C21A (mixed)
# RNA 1: CACCCGUGCAAAAAUGCAGGGGUCUAAAACUGAGCGGAUAACCUCUCUAUGG
# RNA 2: GGGAAUGGAUCCACAUCUACGAAUUCGUACAAUAGAGAGGUUGUCCGCUCACCGAGAUCGGAAGAGCACACGU
# B11: target 1 U10G,G13A (mixed)
# RNA 1: CACCCGUGCAAAAAUGCAGGGGUCUAAAACUGAGCGGAUAACCUCUCUAUGG
# RNA 2: GGGAAUGGAUCCACAUCUACGAAUUCGUACCAUAGAGAAGUGAUCCGCUCACCGAGAUCGGAAGAGCACACGU
# B12: target 1 insU 3' of 21,insA 3' of 19 (mixed)
# RNA 1: CACCCGUGCAAAAAUGCAGGGGUCUAAAACUGAGCGGAUAACCUCUCUAUGG
# RNA 2: GGGAAUGGAUCCACAUCUACGAAUUCGUACCUAUAAGAGAGGUUAUCCGCUCACCGAGAUCGGAAGAGCACACGU
# B13: target 1 insU 3' of 20,insU 3' of 4 (mixed)
# RNA 1: CACCCGUGCAAAAAUGCAGGGGUCUAAAACUGAGCGGAUAACCUCUCUAUGG
# RNA 2: GGGAAUGGAUCCACAUCUACGAAUUCGUACCAUUAGAGAGGUUAUCCGCUUCACCGAGAUCGGAAGAGCACACGU
# B14: target 1 insU 3' of 20,insU 3' of 18 (mixed)
# RNA 1: CACCCGUGCAAAAAUGCAGGGGUCUAAAACUGAGCGGAUAACCUCUCUAUGG
# RNA 2: GGGAAUGGAUCCACAUCUACGAAUUCGUACCAUUAUGAGAGGUUAUCCGCUCACCGAGAUCGGAAGAGCACACGU
# B15: target 1 C2A,U3A (mixed)
# RNA 1: CACCCGUGCAAAAAUGCAGGGGUCUAAAACUGAGCGGAUAACCUCUCUAUGG
# RNA 2: GGGAAUGGAUCCACAUCUACGAAUUCGUACCAUAGAGAGGUUAUCCGCAAACCGAGAUCGGAAGAGCACACGU
# B16: target 1 G15A,G17A (mixed)
# RNA 1: CACCCGUGCAAAAAUGCAGGGGUCUAAAACUGAGCGGAUAACCUCUCUAUGG
# RNA 2: GGGAAUGGAUCCACAUCUACGAAUUCGUACCAUAAAAAGGUUAUCCGCUCACCGAGAUCGGAAGAGCACACGU
# B17: target 1 insU 3' of 22,insG 3' of 2 (mixed)
# RNA 1: CACCCGUGCAAAAAUGCAGGGGUCUAAAACUGAGCGGAUAACCUCUCUAUGG
# RNA 2: GGGAAUGGAUCCACAUCUACGAAUUCGUACUCAUAGAGAGGUUAUCCGCUCGACCGAGAUCGGAAGAGCACACGU
# B18: target 1 C4G,C7A (mixed)
# RNA 1: CACCCGUGCAAAAAUGCAGGGGUCUAAAACUGAGCGGAUAACCUCUCUAUGG
# RNA 2: GGGAAUGGAUCCACAUCUACGAAUUCGUACCAUAGAGAGGUUAUACGGUCACCGAGAUCGGAAGAGCACACGU
# B19: target 1 C4G,C22G (mixed)
# RNA 1: CACCCGUGCAAAAAUGCAGGGGUCUAAAACUGAGCGGAUAACCUCUCUAUGG
# RNA 2: GGGAAUGGAUCCACAUCUACGAAUUCGUAGCAUAGAGAGGUUAUCCGGUCACCGAGAUCGGAAGAGCACACGU
# B20: target 1 U11C,A14C (mixed)
# RNA 1: CACCCGUGCAAAAAUGCAGGGGUCUAAAACUGAGCGGAUAACCUCUCUAUGG
# RNA 2: GGGAAUGGAUCCACAUCUACGAAUUCGUACCAUAGAGCGGCUAUCCGCUCACCGAGAUCGGAAGAGCACACGU
# B21: target 1 insA 3' of 17,insA 3' of 2 (mixed)
# RNA 1: CACCCGUGCAAAAAUGCAGGGGUCUAAAACUGAGCGGAUAACCUCUCUAUGG
# RNA 2: GGGAAUGGAUCCACAUCUACGAAUUCGUACCAUAGAAGAGGUUAUCCGCUCAACCGAGAUCGGAAGAGCACACGU
# B22: target 1 C4U,C7G (mixed)
# RNA 1: CACCCGUGCAAAAAUGCAGGGGUCUAAAACUGAGCGGAUAACCUCUCUAUGG
# RNA 2: GGGAAUGGAUCCACAUCUACGAAUUCGUACCAUAGAGAGGUUAUGCGUUCACCGAGAUCGGAAGAGCACACGU
# B23: target 1 insG 3' of 7,insU 3' of 1 (mixed)
# RNA 1: CACCCGUGCAAAAAUGCAGGGGUCUAAAACUGAGCGGAUAACCUCUCUAUGG
# RNA 2: GGGAAUGGAUCCACAUCUACGAAUUCGUACCAUAGAGAGGUUAUCGCGCUCAUCCGAGAUCGGAAGAGCACACGU
# B24: target 1 insG 3' of 16,insC 3' of 3 (mixed)
# RNA 1: CACCCGUGCAAAAAUGCAGGGGUCUAAAACUGAGCGGAUAACCUCUCUAUGG
# RNA 2: GGGAAUGGAUCCACAUCUACGAAUUCGUACCAUAGAGGAGGUUAUCCGCUCCACCGAGAUCGGAAGAGCACACGU
# B25: target 1 insA 3' of 17,insU 3' of 1 (mixed)
# RNA 1: CACCCGUGCAAAAAUGCAGGGGUCUAAAACUGAGCGGAUAACCUCUCUAUGG
# RNA 2: GGGAAUGGAUCCACAUCUACGAAUUCGUACCAUAGAAGAGGUUAUCCGCUCAUCCGAGAUCGGAAGAGCACACGU
# B26: target 1 A9U,G17A (mixed)
# RNA 1: CACCCGUGCAAAAAUGCAGGGGUCUAAAACUGAGCGGAUAACCUCUCUAUGG
# RNA 2: GGGAAUGGAUCCACAUCUACGAAUUCGUACCAUAAAGAGGUUUUCCGCUCACCGAGAUCGGAAGAGCACACGU
# B27: target 1 insA 3' of 17,insC 3' of 1 (mixed)
# RNA 1: CACCCGUGCAAAAAUGCAGGGGUCUAAAACUGAGCGGAUAACCUCUCUAUGG
# RNA 2: GGGAAUGGAUCCACAUCUACGAAUUCGUACCAUAGAAGAGGUUAUCCGCUCACCCGAGAUCGGAAGAGCACACGU
# B28: target 1 insA 3' of 15,insC 3' of 3 (mixed)
# RNA 1: CACCCGUGCAAAAAUGCAGGGGUCUAAAACUGAGCGGAUAACCUCUCUAUGG
# RNA 2: GGGAAUGGAUCCACAUCUACGAAUUCGUACCAUAGAGAAGGUUAUCCGCUCCACCGAGAUCGGAAGAGCACACGU
# Target: T1, EsCas13d, nuclease-dead
# Experiment: crRNA (strand 1, pre-loaded); Mg2+; 40 mM Tris-HCl pH 7.5, 150 mM NaCl, 6 mM MgCl2, 1 mM DTT, 0.1% Tween-20, 0.2 mg/ml BSA; 25 C; 10 min per concentration, then washed
# Details: tags: His6-TwinStrep-SUMO cleaved; N-terminal SNAP kept (SNAP-Surface 488); label: 3' end held by stalled T7 RNA polymerase
row,Binder,Kd [µM]
1,B1,0.0092 ± 0.0006
2,B2,0.044 ± 0.007
3,B3,0.075 ± 0.033
4,B4,~0.05
5,B5,0.0063 ± 0.0007
6,B6,0.0176 ± 0.0017
7,B7,0.062 ± 0.007
8,B8,0.0156 ± 0.0006
9,B9,0.0356 ± 0.0032
10,B10,0.036 ± 0.004
11,B11,0.042 ± 0.015
12,B12,0.055 ± 0.01
13,B13,0.0106 ± 0.0012
14,B14,0.033 ± 0.005
15,B15,0.01 ± 0.0008
16,B16,0.08 ± 0.015
17,B17,0.0291 ± 0.0018
18,B18,0.0071 ± 0.0004
19,B19,0.0161 ± 0.0023
20,B20,0.086 ± 0.022
21,B21,0.0138 ± 0.0007
22,B22,0.0104 ± 0.0004
23,B23,0.0073 ± 0.0005
24,B24,0.0124 ± 0.0006
25,B25,0.0185 ± 0.0019
26,B26,0.041 ± 0.005
27,B27,0.0122 ± 0.0012
28,B28,0.0101 ± 0.0013
